Assay results as given in PMC7694065.

Target: recombinant Hbl B (hemolysin BL component B) with N-terminal strep tag (Bacillus cereus) (UniProt P80172)

recombinant Hbl B (hemolysin BL component B) with N-terminal strep tag (from UniProt P80172 32-375) (natural protein)
binding of rHbl B to Vero cells (flow cytometry, mAb 1G8-Alexa 488) after 10 min heat treatment over a temperature gradient; minimum 7% FL1-positive cells at 60 °C, increase from 70 °C upwards (% FL1-positive cells): 93
